Columns and labels:
[1] = molecular target: T1, GlnA4 (gamma-glutamylethanolamide synthetase) (Streptomyces coelicolor, UniProt O88070); assay: HPLC/ESI-MS detection of reaction product of purified His-GlnA4; format: biochemical
T1 construct: His-GlnA4
T1 sequence (O88070 1-462): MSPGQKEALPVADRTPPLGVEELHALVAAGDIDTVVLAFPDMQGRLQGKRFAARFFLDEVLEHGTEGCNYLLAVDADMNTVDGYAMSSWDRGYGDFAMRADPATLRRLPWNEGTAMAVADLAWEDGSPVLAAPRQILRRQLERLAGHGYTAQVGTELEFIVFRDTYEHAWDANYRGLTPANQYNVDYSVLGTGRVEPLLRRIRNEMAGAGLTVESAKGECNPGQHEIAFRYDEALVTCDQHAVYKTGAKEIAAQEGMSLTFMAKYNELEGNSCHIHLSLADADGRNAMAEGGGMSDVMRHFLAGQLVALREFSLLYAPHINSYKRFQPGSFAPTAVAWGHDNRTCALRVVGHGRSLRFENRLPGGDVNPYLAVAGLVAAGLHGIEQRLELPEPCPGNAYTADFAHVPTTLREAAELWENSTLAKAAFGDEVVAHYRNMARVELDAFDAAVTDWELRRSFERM

[2] = molecular target: T1, GlnA4 (gamma-glutamylethanolamide synthetase); assay: Pi-release inhibition assay with purified His-GlnA4, Ki from IC50 (Cheng-Prusoff); weak; format: biochemical
[3] = substrate: Nc1ncnc2c1ncn2[C@@H]1O[C@H](COP(=O)(O)OP(=O)(O)OP(=O)(O)O)[C@@H](O)[C@H]1O; assay: Pi-release enzyme kinetics with purified His-GlnA4; format: biochemical, Streptomyces coelicolor; details: Mg2+ (MgCl2)
purified protein [4] = substrate: NCCO; assay: purified protein; details: ATP, Mg2+ (MgCl2)
purified protein [5] = substrate: N[C@@H](CCC(=O)O)C(=O)O; assay: purified protein; details: ATP, Mg2+ (MgCl2)

With `N[C@@H](CCC(=O)NCCO)C(=O)O` [gamma-glutamylethanolamide] the “HPLC/ESI-MS detection of reaction product of purified His-GlnA4” value [1] was “GlnA4 is a functional gamma-glutamylethanolamide synthetase that uses glutamate and ethanolamine as substrates to generate gamma-glutamylethanolamide”.

Molecule `CS(=N)(=O)CC[C@H](N)C(=O)O` (some centres unmarked) [methionine sulfoximine] has a Ki [2] of roughly 11 mM.

B1: GlnA4 (gamma-glutamylethanolamide synthetase) (Streptomyces coelicolor A3(2)) (protein)
chain: MSPGQKEALPVADRTPPLGVEELHALVAAGDIDTVVLAFPDMQGRLQGKRFAARFFLDEVLEHGTEGCNYLLAVDADMNTVDGYAMSSWDRGYGDFAMRADPATLRRLPWNEGTAMAVADLAWEDGSPVLAAPRQILRRQLERLAGHGYTAQVGTELEFIVFRDTYEHAWDANYRGLTPANQYNVDYSVLGTGRVEPLLRRIRNEMAGAGLTVESAKGECNPGQHEIAFRYDEALVTCDQHAVYKTGAKEIAAQEGMSLTFMAKYNELEGNSCHIHLSLADADGRNAMAEGGGMSDVMRHFLAGQLVALREFSLLYAPHINSYKRFQPGSFAPTAVAWGHDNRTCALRVVGHGRSLRFENRLPGGDVNPYLAVAGLVAAGLHGIEQRLELPEPCPGNAYTADFAHVPTTLREAAELWENSTLAKAAFGDEVVAHYRNMARVELDAFDAAVTDWELRRSFERM
notes: His-GlnA4
With B1 the Km [3] was 2500 µM, the Km (purified protein [4]) was 470 µM and the Km (purified protein [5]) was 85410 µM.
